In the RNAGym collection of RNA variant scans (doi:10.7554/elife.80360):

B1: Twister Ribozyme (parent)
chain: AACACUGCCAAUGCCGGUCCCAAGCCCGGAUAAAAGUGGAGGGGGCGG

Variants of: B1
Test: self-cleavage, relative activity (ratio to wild type); higher = more cleavage; co-transcriptional

Going from U6A C8U to U6A C8A, the self-cleavage falls from 0.175 to 0.104.

First: U6C A11G
Second: U6C A11U
The self-cleavage of the first is lower: 0.535 for the first, 0.673 for the second.

First: U6C A11C
Second: U6A G29U
The self-cleavage of the first is lower: 0.292 for the first, 0.767 for the second.

Going from U6A G29A to U6A A11U, the self-cleavage rises from 0.787 to 1.03.

Going from U6A A34U to U6A C27G, the self-cleavage falls from 1.04 to 0.11.

Going from U6A C27A to U6A C27U, the self-cleavage rises from 0.119 to 0.682.

Going from U6G C21A to U6G C21U, the self-cleavage rises from 0.0289 to 0.0405.

Going from U6C G13A to U6C G13U, the self-cleavage falls from 0.0845 to 0.0523.

Compared with U6C G13C, U6A U18A is higher in self-cleavage: 0.107 for the first, 0.174 for the second.

Going from U6A U18G to U6G C20U, the self-cleavage rises from 0.0743 to 0.236.

First: U6G C20A
Second: U6G C20G
The self-cleavage of the first is lower: 0.0634 for the first, 0.0753 for the second.

First: U6C C9U
Second: U6C C9G
The self-cleavage of the first is lower: 0.0507 for the first, 0.122 for the second.

Compared with U6C G38U, U6A A40U is lower in self-cleavage: 0.282 for the first, 0.116 for the second.

Compared with U6A A32G, U6A A32U is lower in self-cleavage: 0.987 for the first, 0.862 for the second.

Going from U6A G48A to U6A G48U, the self-cleavage rises from 0.76 to 0.782.

First: U6A C9G
Second: U6G C26G
The self-cleavage of the first is higher: 0.244 for the first, 0.0499 for the second.

Compared with U6G C14U, U6C A33C is lower in self-cleavage: 0.608 for the first, 0.12 for the second.

Compared with U6C A33U, U6A A30U is higher in self-cleavage: 0.319 for the first, 0.981 for the second.

First: U6C G44C
Second: U6C G44A
The self-cleavage of the first is lower: 0.513 for the first, 0.63 for the second.

First: U6C C20U
Second: U6C C20A
The self-cleavage of the first is higher: 0.169 for the first, 0.0292 for the second.

First: U6A G28A
Second: U6A G28C
The self-cleavage of the first is higher: 0.616 for the first, 0.524 for the second.

First: U6A G24U
Second: U6A G24C
The self-cleavage of the first is lower: 0.0898 for the first, 0.399 for the second.

First: U6C C46A
Second: U6A G36U
The self-cleavage of the first is higher: 0.65 for the first, 0.202 for the second.

Going from U6A G44U to U6A G44C, the self-cleavage falls from 0.925 to 0.874.

Compared with U6A G44A, U6C G24C is lower in self-cleavage: 0.943 for the first, 0.0688 for the second.

First: U6C G24A
Second: U6C G42U
The self-cleavage of the first is lower: 0.0737 for the first, 0.107 for the second.

Going from U6C G42C to U6C A22U, the self-cleavage rises from 0.11 to 0.141.

First: U6C G29U
Second: U6C G29A
The self-cleavage of the first is higher: 0.371 for the first, 0.34 for the second.

Going from C5U U12A to U6G A40G, the self-cleavage falls from 0.943 to 0.137.

First: U6G A32U
Second: U6C G36A
The self-cleavage of the first is higher: 0.405 for the first, 0.136 for the second.

Going from U6C G36U to U6A G42C, the self-cleavage rises from 0.0917 to 0.291.

First: U6A C46G
Second: U6A C46U
The self-cleavage of the first is lower: 0.988 for the first, 1.04 for the second.

Going from U6A C46A to U6C C26G, the self-cleavage falls from 0.809 to 0.125.

Going from U6C C26A to U6C C15U, the self-cleavage rises from 0.0404 to 0.354.

Going from U6C C15A to U6G G24A, the self-cleavage falls from 0.169 to 0.0855.

Compared with U6C C8U, U6C G48A is higher in self-cleavage: 0.174 for the first, 0.514 for the second.

First: U6A C20A
Second: U6A C20G
The self-cleavage of the first is lower: 0.0593 for the first, 0.0822 for the second.

Going from U6C G47A to U6C G47C, the self-cleavage falls from 0.579 to 0.209.

Going from U6C G47U to U6G G7C, the self-cleavage rises from 0.575 to 0.873.

Going from U6G C25A to U6C C21U, the self-cleavage falls from 0.058 to 0.0537.

First: U6G C9G
Second: U6G C9U
The self-cleavage of the first is higher: 0.171 for the first, 0.163 for the second.

Compared with C5U U18C, U6G A10U is lower in self-cleavage: 0.24 for the first, 0.204 for the second.

Compared with U6C A30U, U6A G45U is higher in self-cleavage: 0.493 for the first, 0.695 for the second.

Compared with U6C G7A, U6C G7C is lower in self-cleavage: 0.0638 for the first, 0.0439 for the second.

Going from U6C G17C to U6C G17A, the self-cleavage rises from 0.0484 to 0.0938.

Compared with U6A G13A, U6A G13C is lower in self-cleavage: 0.195 for the first, 0.072 for the second.

First: U6A U37C
Second: U6A U37G
The self-cleavage of the first is lower: 0.124 for the first, 0.328 for the second.

Compared with U6C A10C, U6C A10U is lower in self-cleavage: 0.772 for the first, 0.602 for the second.

Going from U6A C14G to U6G A30G, the self-cleavage rises from 0.124 to 0.322.

Going from U6G A30U to U6A A22U, the self-cleavage rises from 0.687 to 0.816.

Going from U6A A22C to U6G A23U, the self-cleavage falls from 0.936 to 0.0909.

Going from U6A C26A to U6A C26G, the self-cleavage falls from 0.144 to 0.132.

First: U6G A35U
Second: U6G A35C
The self-cleavage of the first is lower: 0.549 for the first, 0.678 for the second.

Compared with U6C G16A, U6C G16C is lower in self-cleavage: 0.318 for the first, 0.146 for the second.

Going from U6C A32G to U6G G29U, the self-cleavage falls from 0.518 to 0.173.

Going from U6G A34C to U6G A34G, the self-cleavage falls from 0.539 to 0.392.

Going from U6C C19U to U6C C19G, the self-cleavage falls from 0.131 to 0.0653.

First: U6G A33U
Second: U6G A33G
The self-cleavage of the first is higher: 0.234 for the first, 0.199 for the second.

Compared with U6G C15G, U6G A11U is higher in self-cleavage: 0.0391 for the first, 0.381 for the second.

Going from U6C U18G to U6C U18C, the self-cleavage rises from 0.0358 to 0.0688.

First: U6C G39U
Second: U6C G39C
The self-cleavage of the first is lower: 0.114 for the first, 0.136 for the second.

Compared with U6C G39A, U6A C15U is higher in self-cleavage: 0.273 for the first, 0.649 for the second.

First: U6A G39A
Second: U6A G39C
The self-cleavage of the first is higher: 0.255 for the first, 0.183 for the second.

Going from U6G A22U to C5U U6A, the self-cleavage rises from 0.136 to 0.674.

Compared with C5U U6G, U6A G38A is higher in self-cleavage: 0.261 for the first, 0.738 for the second.

Going from U6A G38U to U6A G38C, the self-cleavage rises from 0.188 to 0.594.

Going from U6C A35C to U6G G16A, the self-cleavage falls from 0.403 to 0.226.

Going from U6C G43C to U6C G43A, the self-cleavage falls from 0.128 to 0.0844.

Compared with U6C G43U, U6A G17C is lower in self-cleavage: 0.134 for the first, 0.0763 for the second.

Compared with U6A G17A, U6A A35C is higher in self-cleavage: 0.181 for the first, 1.04 for the second.

First: U6G
Second: U6A
The self-cleavage of the first is lower: 0.486 for the first, 1.03 for the second.

Compared with U6C, U6G C8A is lower in self-cleavage: 0.596 for the first, 0.212 for the second.

First: U6C U37A
Second: U6C U37C
The self-cleavage of the first is higher: 0.131 for the first, 0.0955 for the second.

First: U6A G41U
Second: U6A G41C
The self-cleavage of the first is higher: 0.204 for the first, 0.182 for the second.

Compared with U6A G41A, U6A U12A is higher in self-cleavage: 0.203 for the first, 1.13 for the second.

First: C5U U37C
Second: C5U U37A
The self-cleavage of the first is lower: 0.283 for the first, 0.547 for the second.

Compared with C5U U37G, U6C C25G is lower in self-cleavage: 0.432 for the first, 0.0594 for the second.

Compared with U6C C25U, U6A A33G is higher in self-cleavage: 0.184 for the first, 0.881 for the second.

First: U6A A23G
Second: U6A A23C
The self-cleavage of the first is higher: 0.14 for the first, 0.097 for the second.

First: U6A A23U
Second: U6A A10G
The self-cleavage of the first is lower: 0.191 for the first, 1.22 for the second.

First: U6A A10U
Second: U6C A40G
The self-cleavage of the first is higher: 1 for the first, 0.0788 for the second.

Going from U6C C14G to U6C C27A, the self-cleavage rises from 0.0559 to 0.0694.

Going from U6A G7C to U6C A23U, the self-cleavage falls from 0.234 to 0.0534.

In the case of U6A G43A, the self-cleavage is reported as 0.223.
